Reference: US20210215708A1 (University of California, published 2021)

Molecular target: BD1-EGFP-HOTag6 (UniProt O60885 44-168)
Test: cell-based or functional assay

B1: CRBN-EGFP-HOTag3 (other, not shown: large carriers)
chain: MAGEGDQQDAAHNMGNHLPLLPAESEEEDEMEVEDQDSKEAKKPNIINFDTSLPTSHTYLGADMEEFHGRTLHDDDSCQVIPVLPQVMMILIPGQTLPLQLFHPQEVSMVRNLIQKDRTFAVLAYSNVQEREAQFGTTAEIYAYREEQDFGIEIVKVKAIGRQRFKVLELRTQSDGIQQAKVQILPECVLPSTMSAVQLESLNKCQIFPSKPVSREDQCSYKWWQKYQKRKFHCANLTSWPRWLYSLYDAETLMDRIKKQLREWDENLKDDSLPSNPIDFSYRVAACLPIDDVLRIQLLKIGSAIQRLRCELDIMNKCTSLCCKQCQETEITTKNEIFSLSLCGPMAAYVNPHGYVHETLTVYKACNLNLIGRPSTEHSWFPGYAWTVAQCKICASHIGWKFTATKKDMSPQKFWGLTRSALLPTIPDTEDEISPDKVILCLGEIAKSLKEIAKSLKEIAWSLKEIAKSLKG
brightness of the EGFP droplets after ARV-825: 10 fold
